In PMC1847435, “Structural investigations of the ferredoxin and terminal oxygenase components of the biphenyl 2,3-dioxygenase from Sphingobium yanoikuyae B1” (BMC Structural Biology, 2007):

B1: Biphenyl 2,3-dioxygenase from Sphingobium yanoikuyae strain B1, terminal oxygenase β subunit (enzyme)
chain: MSSEQIPVTPDVHYDIEAHYRAEVRMFQTGQYREWLQGMVAEDIHYWMPIYEQRLTRDRRPDPTPDDAAIYNDDFGELKQRVERLYSGQVWMEDPPSKIRYFVSNVEAFEAGNGELDVLSNILVYRNRRQTEVTVHTLGREDKLRRDGNGFKVFRRKLILDARVTQDKNLYFFC
notes: β subunit of biphenyl 2,3-dioxygenase (BPDO-OB1), Sphingobium yanoikuyae B1, encoded by bphA2f; residues 5-174 modelled in the structure; Co-expressed with the α subunit (bphA1fA2f in one vector); also called BPDO-OB1 β subunit; source: cloned from B1 into pET101D, expressed as described in Yu et al. [45], purified
B2: Biphenyl 2,3-dioxygenase from Sphingobium yanoikuyae strain B1, terminal oxygenase α subunit (enzyme)
chain: MSSDATLVDTVNASQSRQVFWDEDVYALEIERIFSRAWLMLGHESLVPKPGDFITTYMAEDKVILSHQSDGTFRAFINSCSHRGNQICHADSGNAKAFVCNYHGWVFGQDGSLVDVPLESRCYHNSLDKQKLAAKSVRVETYKGFIFGCHDPEAPSLEDYLGEFRYYLDTIWEGAGGGMELLGPPMKSLLQCNWKVPAENFIGDGYHVGWTHAAALSQIGGELAGLAGNRADIPFDDLGLQFTTRHGHGFGVIDNAAAGLHIKREGWTKFLEDTRGEVRRKFGPERERLYLGHWNCSIFPNCSFLYGTNTFKIWHPRGPHEIEVWTYTIVPRDADPATKSMIQREAIRTFGTAGTLESDDGENMSSATYINRGVITRNGRMNSTMGVGYEGPHPVYPGIVGISFIGETSYRGFYRFWKEMIDAPDWASVKANDDTWDSVFPNRNFWNEKLNAAE
notes: α subunit of biphenyl 2,3-dioxygenase (BPDO-OB1), Sphingobium yanoikuyae B1, encoded by bphA1f; the α subunit consists of 454 residues; residues 6-454 modelled in the structure; Co-expressed with the β subunit (bphA1fA2f in one vector); also called BPDO-OB1 α subunit; source: cloned from B1 into pET101D, expressed as described in Yu et al. [45], purified

What was measured:
[1] = biological target: B2; experiment: crystal structure; purified BPDO-OB1 at 20 mg/ml in 20 mM potassium phosphate pH 6.8; space group P3(1)21, complete α3β3 in the asymmetric unit; native (1.70 Å) and biphenyl-soaked crystals; settings: both partners purified
[2] = biological target: the molecule itself; experiment: as above

binding result [1]	Binder	stoichiometry N [2]
binds	B1	3
	B2	3
